This experiment has as its target Encephalitozoon cuniculi TATA box binding protein, full length (Encephalitozoon cuniculi).

As a reminder, the stoichiometry N is a count of units in the complex or per binding partner.

For “Encephalitozoon cuniculi Mot1 N-terminal domain (HEAT domain, residues 1–779) (domain or fragment)”, the stoichiometry N is 1 Mot1:TBP.

Source of the values: publication PMC3276066.
